Target: T1, SBP-UNK ZnF1-6 (30-357) (human, UniProt Q9C0B0 30-357)
T1 sequence: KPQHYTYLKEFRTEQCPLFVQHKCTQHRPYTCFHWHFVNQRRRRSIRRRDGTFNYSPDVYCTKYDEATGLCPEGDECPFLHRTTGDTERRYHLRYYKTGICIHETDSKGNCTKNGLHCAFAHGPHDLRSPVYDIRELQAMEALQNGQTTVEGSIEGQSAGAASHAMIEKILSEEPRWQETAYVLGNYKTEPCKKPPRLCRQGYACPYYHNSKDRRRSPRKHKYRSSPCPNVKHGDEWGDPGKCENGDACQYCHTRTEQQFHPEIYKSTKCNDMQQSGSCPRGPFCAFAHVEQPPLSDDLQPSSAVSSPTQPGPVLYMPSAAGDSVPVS
Assay: fluorescence polarization

## UACAUCGCAUUAGACAUUUU (ssRNA) [Human GTPB4 FP RNA]
  Kd: 263 nM

## UUCAUCGCAUUAGACAUUUU (ssRNA) [Chi58-67 gtpb4 FP RNA]
  Kd: 305 nM

Reference: paper PMC11436793
